Assay: label from the status in PepcDB records
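Also: failed if final PepcDB status was selected cloned or expressed and not failed if soluble or beyond.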

Sequence | protein production
MLSKNNFNEKLMQMNNQKAHFSIRKLTIGAASVLIGITFMGINGQTVNADEMTGNTQPEAMQVSTDKSTDATTTQQNDSDSSAQKNAAQTVEVPQNSKQDNTGETSQSTTDKKDTQVQKTESSETKADTAQSQVPPAANQTQKSADQNVENTQSPVASNTTQPKTQNDSKYNVADWGGSLNDETHEYTLNKYNGSDKENIYIPNTEDFIKAGKITDIDKVFITKDLIQNITKNGATSIVIDDQGSEDKNKVYAKGDWSNAFAGSTKLKSVDLSHLDTSQVTSMAGAFNGDTGLNDANLSGWNIQNMTNLSSLFYGANNLYNVDMSGWNFINNPNTNSMFSYADYNLKSVNLKNAKNVTDDILRIYARAIKNSNATTADLSDINLSPNVTSLHGLFSNMPDLKNVNLSGLDISHITDMGGMFSGDSNLESLDLSGLDLSKVTNTNNMFDWVGGKIKSVNITNTKSIPRSILDIYLKALSNTGTTTVDLSGINLSPNVTSLHGLFANMPNLGSANLSGLDISHITDMGGMFFNDTSLKSVNLSGLNLEKVKDLSTMFYGANNLENVDFSNTKFAPDANTNVMFAFADTKLQSVNINGTKNITREVLDAVIRAAKNSNATTLDLSGVSFSPSITSFNNLFSNMPNIESIDLTGWDTSHITDMSYMFFNDPKLKIIKGLEDFNTSNVTNMAYMFAAFNNPTTDNYDPKGLESLGHLTKLDLSNWDTSNVTNMLYMFAGQTNLTSLGDLSKWNTSKVTNMAYMFYDLKNIDDGKLDLTGWDTSNVTDMSYMFFNMFLQKDLSFVNDWNTGKVTDMSYMFANDKNLEKLDLSKWDVSSVGLKHTEQNYSLAMMFAGDTSLTTVGDISHWNTKNVHDTRQMFYNTPKLTNIDLSGWNTGKLQIAEGMFNSSGAKQINLDNWDLSNIKRITPAGYVEGKAGVGVLRGVENMFKNLTNPAVISMNKVILPDARNAFEINDFEGNKAIVVIANGQNGEALQDLLKINNQTWTDKSGNNVTGRQNSDYVTYVRADDNSNQIGQRGLNFIFTNLDDLHQYFNQVTNADNVKNDIGELSHDWDAQQDTDNNIVKITLRLSPASSYDPYSENIHAEKDGNILADLMTSKYQLHIVAPTNTTETKKPTRTIIIENPDGTTSTKEQTVEFKREVTKHVDGTEEATSWTPTSGEWTKFDVPQIAGYDSYVDGTQSKSVASEPVNKDTENVTVVITYKSNAVNPEPIIPDPVKPEVDPDKKDPQEPKTDPVTPTPDEPENPKPEKKPSNPDKRKDDNSKVVKPHGENKAAKKNHSSVEHKKTGTHTIKLSHRVAPKGTQATNGSKKSTSTVNKAADNNKNTLPQTGEKKSNAGLIGLALIALASLGLIDRKRRD | failed
MLSNRFNRWTVAAIALMGTAIATVPGRVLAQTPDHPSDTAAQFPTRNDLKSLTTSGSYLAARHASVERDATSAAAFYRSALRTDPKNNELLDRAFISSVADGDIDEAVKLAERVLTIDKTNRVARLVVGVHDLKMKKYATAQTNINQSIRGPITDLVATLLSGWAAYGAGDSKGAVATIDKLAGPEWYPLFKDLHAGMILELAGKEKDAGTRFERAYKLDDSMLRVTEAYARWLSRNKDAAAATTVYQAFDKKLARHPLIVEGLRDTKAGKKLPPLVDSAQAGAAEALYGIGATLTRRGGEDLALVYLQLSLYLQPTHPLALLSLADLYESVKRPQMAIKVYERVPSTSPLKRNAQIQLAIDLDSADRTDEAIKILKGVTSEDSKDLEAIMALGNIERGRKKFGDCGATYSQGVDVLPAGNDKANSVWYYYRGICEERSKQWAKAEADMKKALELQPDQPHVLNYLGYSWIDQGVNLDEGMKMIKRAVEQRPDDGYIVDSLGWAYYRIGNYEEAVKNLERAIDLKPEDPTINDHLGDAYWRVGRTLEAKFQWSHARDLKPEPDELPKIEAKIANGLTEDNSNSSAAQAEKKKDDGKGG | failed
MLTDPFFYLVAIPAVILLGLTKGGFAGIGVVAVPMMTLAVSPVMAASIILPILLVQDVVSVWSFRKTWDKAILVLMLPAAAVGIFLGWALAALVEEAAVELAVGAISVVFALQRLWAEHALRAADSIEAGPARPWLGVLCGATAGFTSQIAHAGGPPFQIYVLPRGLPRDVFIGTSAIFFGVVNWMKVPAYLALGQLTPQALATAGVLLPLAIASTWAGVWLVRRVPAEGFYKVIYVLLVLVGGKLMFDGARGLLT | failed
MLTFAPLNFLAIGVGATLGAWLRWVPGLRLNGAGWPWGTLTANLVGGYLIGVMVALIASHPEWPAWIRLAAVTGFLGGLTTFSTFSAETVDMLERGVYATAAAYAGASLAGSLAMTGLATVRLLLR | failed
MLTFFIGDLLPIIVIMLLGYFSGRRETFSEDQARAFNKLVLNYALPAALFVSITRANREMIFADTRLTLVSLVVIVGCFFFSWFGCYKFFKRTHAEAAVCALIAGSPTIGFLGFAVLDPIYGDSVSTGLVVAIISIIVNAITIPIGLYLLNPSSGADGKKNSNLSALISAAKEPVVWAPVLATILVLVGVKIPAAWDPTFNLIAKANSGVAVFAAGLTLAAHKFEFSAEIAYNTFLKLILMPLALLLVGMACHLNSEHLQMMVLAGALPPAFSGIIIASRFNVYTRTGTASLAVSVLGFVVTAPLWIYVSRLVS | failed
MLTGLKIAVIGGDARQLEIIRKLTEQQADIYLVGFDQLDHGFTGAVKCNIDEIPFQQIDSIILPVSATTGEGVVSTVFSNEEVVLKQDHLDRTPAHCVIFSGISNAYLENIAAQAKRKLVKLFERDDIAIYNSIPTVEGTIMLAIQHTDYTIHGSQVAVLGLGRTGMTIARTFAALGANVKVGARSSAHLARITEMGLVPFHTDELKEHVKDIDICINTIPSMILNQTVLSSMTPKTLILDLASRPGGTDFKYAEKQGIKALLAPGLPGIVAPKTAGQILANVLSKLLAEIQAEEGK | failed
MLTGNKPAVQRRFIGLLMLSVLVAGCSSNPLANFAPGYPPTIEPAQPAVSPPTSQDPAGAVRPLSGHPRAALFDNGTRQLVALRPGADSAAPASIMVFDDVHVAPRVIFLPGPAAALTSDDHGTAFLAARGGYFVADLSSGHTARVNVADAAHTDFTAIARRSDGKLVLGSADGAVYTLAKNPAVDPASGAATVASRTKIFARVDALVTQGNTTVVLDRGQTSVTTIGADGHAQQALRAGQGATTMAADPLGRVLIADTRGGQLLVYGVDPLILRQAYPVRQAPYGLAGSRELAWVSQTASNTVIGYDLTTGIPVEKVRYPTVQQPNSLAFDETSDTLYVVSGSGAGSRFIEHAAGTR | failed
MLTLIKRTVLAAGLIGTTLGAAAQPPRAYPLKDFFRNPERGYFRLADDGKTLGFMQPVSIDGQPPRMNIYVQALADGVPAGEPRKLTSETARDISNFFWKGDDTVLYQKDFGGDENFHVLAVNARTGQVADLTPYEGVRASIEDDLPDDPDHVLISHNRRDPQVFDVYRVNVRTGAAELVAQNPGNVVGWQTDHAGKVRAAITSDGLNTTLLYRDDEAAPFRPLITTDYRVSVSPAFFTFDDRKLYALSNRGRDKLALVVIDPATPDVEQPVFEPDEVDLDAAGYSRKRKVLTVASYQTDKPRHRFFDAETEALYARLARALPGYDFALQGWNRDEDTFIVAAYNDRTPGSRYLYDARRDSLHKLADINPAIPEADMAPVRPVSYQSRDGLTIHGYLTLPAGRAPRNLACIVNPHGGPWARDGWGYNPEVQFLANRGFCVLQMNFRGSTGYGRKFWEAGFGQWGLKMQDDITDGVQWLIDQGIADPRRIGIYGGSYGGYATLAGVAFTPDLYAAAVDYVGVSNLFTFMNTIPPYWKPLLAKMQDMVGDPVRDKARLEATSPALHVDRIKTPLFIAQGAKDPRVNKAESDQVVQALRQRGVEVEYMVKDNEGHGFHNDENKFEFYAAMEKFFTEHLKP | failed
MLTRYLAIAAIALALTGLGGCSVNPVTGEKQLSLISENQELALGAEQYTPTQQTQGGRFYIDPELSIYVRDVGQKLARVSDRPDLPYEFVVLNNSVPNAWALPGGKIAINRGLLVELEDEAQLASVLGHEIVHAAARHSVQRMQQGMLISAGVAGLGFALSDNEWAGLIMGGAALGAQLALAQYSQGDELESDAYGIRYMKEAGYDPQAAVELQQLFLKLSEGRQSGWLDGLFATHPPSAKRVQENQELVQNIGSGGYRGRDVYQRRIAKLKELQPAYDAHDEAMKLASEGKFEAALDQVNKAIKLEPREAMLFALRGRIYRGMEQPEKAKADFDKAVSLYPEMFQYQLYSGLNELELNNLGKAKTHLEKANQVVPTSIAYLRLGDIARQQGQRSEAVAYYSTAAEAGGDVGAEAQRKLAELSN | failed
MLTVKQRETDCPMDLNTLISQYGYAALVIGSLAEGETVTLLGGVAAHQGLLKFPLVVLSVALGGMIGDQVLYLCGRRFGGKLLRRFSKHQDKIERAQKLIQRHPYLFVIGTRFMYGFRVIGPTLIGASQLPPKIFLPLNILGAFAWALIFTTIGYAGGQVIAPWLHNLDQHLKHWVWLILVVVLVVGVRWWLKRSGKKKPDHQA | failed
MLTYQVKQGDTLNSIAADFRISTAALLQANPSLQAGLTAGQSIVIPGLPDPYTIPYHIAVSIGAKTLTLSLNNRVMKTYPIAVGKILTQTPTGEFYIINRQRNPGGPFGAYWLSLSKQHYGIHGTNNPASIGKAVSKGCIRMHNKDVIELASIVPNGTRVTINR | not failed
MLVAAQQQGPPMPRPSHLMILALTAAALYIYALASDNTMLALMAKPIPVLALIAWLRSTPVSPYRTWISIGLGFSVLGDILLAIPADLFVFGLAAFLCAHLAYLRGYCGITLRPALPALIFSAITGIALLGVLASNGLGPLLIPVALYALAISAMLWRALACGGVAALGAGLFVFSDSLIGIDRFISPFAAAPYLIILAYWLGQWAIASSVGHRSTDKVLTQSGARRTESC | failed
MLVAPFASQLPFVEETLHSSYQALQWGKNIFAIAHKTLSARLLNTVFPTEERTQPLSPELQAWLKERYEALLQQDWQDAAAGFYPATLLFDAPWEEFLRFYPLLLLDLPQMWQRARSRQFQEFAHNVRLEDYPQYYRQNFHYQTDGYLSDTSANLYDIQVELLFGGTADAMRRRVIAPIAQQVVAHPPTPPLRILDVACGTGRTLKQLRYAFPGAVLFGLDLSPAYLRKANALLATQTGALPQLIQGNAESLPYVDSYFSAITCVFLFHELPAPVRQNVIHECARVLQPGGIFVICDSIQSLDSPEQRPMMENFANLFHEPFYRNYIEDDLNLRLEKAGLVVKEVQHHFMSKYWVAVKPSLEHHHHHH | failed
MLVCYSVLACEILWDLPCSIMGSPLGHFTWDKYLKETCSVPAPVHCFKQSYTPPSNEFKISMKLEAQDPRNTTSTCIATVVGLTGARLRLRLDGSDNKNDFWRLVDSAEIQPIGNCEKNGGMLQPPLGFRLNASSWPMFLLKTLNGAEMAPIRIFHKEPPSPSHNFFKMGMKLEAVDRKNPHFICPATIGEVRGSEVLVTFDGWRGAFDYWCRFDSRDIFPVGWCSLTGDNLQPPGTKVVIPKNPYPASDVNTEKPSIHSSTKTVLEHQPGQRGRKPGKKRGRTPKTLISHPISAPSKTAEPLKFPKKRGPKPGSKRKPRTLLNPPPASPTTSTPEPDTSTVPQDAATIPSSAMQAPTVCIYLNKNGSTGPHLDKKKVQQLPDHFGPARASVVLQQAVQACIDCAYHQKTVFSFLKQGHGGEVISAVFDREQHTLNLPAVNSITYVLRFLEKLCHNLRSDNLFGNQPFTQTHLSLTAIEYSHSHDRYLPGETFVLGNSLARSLEPHSDSMDSASNPTNLVSTSQRHRPLLSSCGLPPSTASAVRRLCSRGVLKGSNERRDMESFWKLNRSPGSDRYLESRDASRLSGRDPSSWTVEDVMQFVREADPQLGPHADLFRKHEIDGKALLLLRSDMMMKYMGLKLGPALKLSYHIDRLKQGKF | failed
MLVEDSGHHLPESADIENALDLLLKAQLERAFGPELAEHFWAARQPRTLDERLAFIRKCWIGVFKDSPLSTFGLERLEQLERLCRSKRRGRELSAAEHHQFAEELARLWEQVQRLLPRAAPETSYASSASAGGVHSGDAHTPATLSDAESAHAAPEAMRIEAPATSARSASGCMARVSSDVAAAATNVSLVVLDGENIAWAHGQNAVFSPKGIAIAVDFFRKRGYRCVVFLPDYRRKRADLPTVSASDALVFVPAGEYDDTFALGYAVGHDAILVTNDLLQDHLDQFYPDEGEAREALRKWLGSHRCSFTFVGDEFLPNPHFFLP | failed

— a protein production outcome set (Wang et al. 2014)
